Data from article PMC3186216 (Biochemistry, 2010).

Molecular target: T1, calnexin (dog (endogenous in MDCK), UniProt P24643 21-593)
T1 sequence (looked up): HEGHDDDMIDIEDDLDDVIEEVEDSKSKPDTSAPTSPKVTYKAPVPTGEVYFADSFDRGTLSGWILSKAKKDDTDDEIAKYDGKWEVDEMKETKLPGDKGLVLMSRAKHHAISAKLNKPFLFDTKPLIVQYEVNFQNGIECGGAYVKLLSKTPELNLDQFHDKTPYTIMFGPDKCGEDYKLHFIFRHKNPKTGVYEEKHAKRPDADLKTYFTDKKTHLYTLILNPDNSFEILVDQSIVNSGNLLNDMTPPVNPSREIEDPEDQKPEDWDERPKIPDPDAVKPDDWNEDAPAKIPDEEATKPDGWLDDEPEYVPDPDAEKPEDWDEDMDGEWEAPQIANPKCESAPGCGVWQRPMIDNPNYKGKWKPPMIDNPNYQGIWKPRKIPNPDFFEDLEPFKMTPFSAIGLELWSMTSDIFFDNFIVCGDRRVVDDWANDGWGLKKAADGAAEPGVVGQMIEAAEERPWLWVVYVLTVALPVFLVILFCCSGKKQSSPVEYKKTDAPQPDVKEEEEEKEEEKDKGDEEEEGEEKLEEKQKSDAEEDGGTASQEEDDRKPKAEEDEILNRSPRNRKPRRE
Assay: co-IP

B1: YFP-linked Na,K-ATPase β2 subunit (human), wild type (natural protein, UniProt P14415 1-290, looked up)
chain: MVIQKEKKSCGQVVEEWKEFVWNPRTHQFMGRTGTSWAFILLFYLVFYGFLTAMFTLTMWVMLQTVSDHTPKYQDRLATPGLMIRPKTENLDVIVNVSDTESWDQHVQKLNKFLEPYNDSIQAQKNDVCRPGRYYEQPDNGVLNYPKRACQFNRTQLGNCSGIGDSTHYGYSTGQPCVFIKMNRVINFYAGANQSMNVTCAGKRDEDAENLGNFVMFPANGNIDLMYFPYYGKKFHVNYTQPLVAVKFLNVTPNVEVNVECRINAANIATDDERDKFAGRVAFKLRINKT
modifications: N-glycans at all eight N-glycosylation sites; only the high-mannose form coprecipitated with calnexin
normalised amount coprecipitated, fold of that of YFP-β1: ~7 fold
